Data: paper PMC4021855 (Nature chemical biology, 2013)
Ends that are not written are not given here.

Columns and labels:
[1] = target: human full-length KRS WT, His-tagged (human, UniProt Q15046 1-597); test: AlphaScreen or HTRF
[2] = target: human full-length KRS T52D, His-tagged (human, UniProt Q15046 1-597, T52D); test: AlphaScreen or HTRF
human full-length KRS T52D, His-tagged, sequence (Q15046 whole entry T52D): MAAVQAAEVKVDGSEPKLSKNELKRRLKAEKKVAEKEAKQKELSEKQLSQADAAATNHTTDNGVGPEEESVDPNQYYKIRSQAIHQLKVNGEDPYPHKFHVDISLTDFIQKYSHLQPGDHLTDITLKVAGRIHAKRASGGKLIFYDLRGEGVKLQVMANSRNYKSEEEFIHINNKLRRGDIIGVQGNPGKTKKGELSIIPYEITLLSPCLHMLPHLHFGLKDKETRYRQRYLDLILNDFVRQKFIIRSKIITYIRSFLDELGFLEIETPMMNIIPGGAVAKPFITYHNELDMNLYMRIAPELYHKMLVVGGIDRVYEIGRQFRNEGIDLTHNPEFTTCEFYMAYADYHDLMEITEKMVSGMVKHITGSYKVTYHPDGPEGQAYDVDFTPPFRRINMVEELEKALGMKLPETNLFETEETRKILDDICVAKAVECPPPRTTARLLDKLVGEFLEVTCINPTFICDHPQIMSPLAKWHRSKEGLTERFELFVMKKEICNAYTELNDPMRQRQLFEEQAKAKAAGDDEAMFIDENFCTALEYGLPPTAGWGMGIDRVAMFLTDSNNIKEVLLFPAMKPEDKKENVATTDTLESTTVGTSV

human full-length KRS WT, His-tagged, sequence (Q15046 whole entry): as the sequence (Q15046 whole entry T52D) above, with D52T counted along it

- binding result [1]: binds
- Kd [2]: 333 nM
Binder: MPMYQVKPYHGGGAPLRVELPTCMYRLPNVHGRSYGPAPGAGHVQEES-{TRX} (domain or fragment, human, UniProt Q13155 1-48, looked up, also: biotin via EZ-Link-NHS-PEG12-Biotin, places not given here) [AIMP2_(1–48)-TRX-Biotin]
